Source: paper PMC11732463

Assays:
[1] = Western blot of microsomal fractions; details: glycan lost; control: WT CerS6 microsomes
[2] = in vitro microsomes, NBD-sphingosine + C16:0-CoA, HPLC; details: glycan lost; control: WT CerS6 microsomes
[3] = in situ 17C-sphingosine labeling, LC/MS of 17C-Sph-C16:0-ceramide; details: glycan lost; control: WT CerS6 in CerS6 KO HCT116

B1: ceramide synthase 6 (CerS6): N18A (protein)
parent chain: MAGILAWFWNERFWLPHNVTWADLKNTEEATFPQAEDLYLAFPLAFCIFMVRLIFERFVAKPCAIALNIQANGPQIAPPNAILEKVFTAITKHPDEKRLEGLSKQLDWDVRSIQRWFRQRRNQEKPSTLTRFCESMWRFSFYLYVFTYGVRFLKKTPWLWNTRHCWYNYPYQPLTTDLHYYYILELSFYWSLMFSQFTDIKRKDFGIMFLHHLVSIFLITFSYVNNMARVGTLVLCLHDSADALLEAAKMANYAKFQKMCDLLFVMFAVVFITTRLGIFPLWVLNTTLFESWEIVGPYPSWWVFNLLLLLVQGLNCFWSYLIVKIACKAVSRGKVSKDDRSDIESSSDEEDSEPPGKNPHTATTTNGTSGTNGYLLTGSCSMDD
With B1 the expression_or_secretion [1] was “increases”, the enzymatic_activity [2] was “decreases, N18A CerS6 activity is not statistically different than that of the LacZ microsomes” and the enzymatic_activity [3] was “decreases, was approximately equal to that of LacZ expressing cells”.
